Measured values as given in US20260217833A1 (APTEVO RESEARCH AND DEVELOPMENT, published 2026).
Residue numbers refer to the chain shown, from its start. Blank lines part the entries; values can stand above or below the binder they belong to.

How the values were obtained:
[1] = molecular target: T1, Human PD-L1 full-length (human, UniProt Q9NZQ7 19-290); assay: MSD cell binding, CHOK1SV/human PD-L1 cells; x axis without printed unit
T1 construct: also called PDL01021; CHOK1SV/huPDL1

[2] = molecular target: T2, Cyno PD-L1 full-length (cynomolgus, UniProt Q9NZQ7 19-290 (human entry)); assay: MSD cell binding, CHOK1SV/cynomolgus PD-L1 cells; x axis without printed unit
T2 construct: also called PDL01022; CHOK1SV/cynoPDL1
T2 sequence (Q9NZQ7 other isoform, or with tags, fused parts or gaps): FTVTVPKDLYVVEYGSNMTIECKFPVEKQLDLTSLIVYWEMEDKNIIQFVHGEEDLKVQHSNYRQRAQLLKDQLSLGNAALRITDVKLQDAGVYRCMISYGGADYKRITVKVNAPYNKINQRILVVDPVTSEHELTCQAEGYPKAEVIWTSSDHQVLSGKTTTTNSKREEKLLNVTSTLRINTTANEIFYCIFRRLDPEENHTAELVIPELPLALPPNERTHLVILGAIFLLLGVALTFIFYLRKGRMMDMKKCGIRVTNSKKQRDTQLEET

[3] = molecular target: T3, human CD40 full-length (human, UniProt P25942 21-277); assay: flow cytometry, CHOK1SV/human CD40 cells
T3 construct: Also used for CD40 of Daudi cells, of CD40-expressing HEK293 cells and of the BPS CD40/NFkB HEK293 reporter cells where the row says so; also called CD4001012; CHOK1SV/CD40

[4] = molecular target: T1, Human PD-L1 full-length; assay: flow cytometry, CHOK1SV/human PD-L1 cells

T1 sequence (Q9NZQ7 19-290): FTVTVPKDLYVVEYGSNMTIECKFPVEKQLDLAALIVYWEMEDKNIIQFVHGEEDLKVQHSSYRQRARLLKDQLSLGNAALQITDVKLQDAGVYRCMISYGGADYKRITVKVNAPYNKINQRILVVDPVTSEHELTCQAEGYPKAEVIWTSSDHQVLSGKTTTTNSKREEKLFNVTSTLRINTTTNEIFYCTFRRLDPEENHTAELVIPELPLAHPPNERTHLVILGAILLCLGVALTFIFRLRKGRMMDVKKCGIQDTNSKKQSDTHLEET

B1: PDL01033 (Fc fusion)
scFv: EVQLQESGPSLVKPSQTLSLTCSVTGDSITSGYWNWIRKFPGKKLEYMGYISYTGSTYYNPSLKSRISIARDTSKNQYFLQLNSVTTEDTATYYCTRGENWDGGYFDYWGQGTTLTVSSGGGGSGGGGSGGGGSGGGGSDIQMTQTTSSLSASLGDRVTISCSASQGIRNYLNWYQQKPDGTVKLLIYYTSTLHSGVPSRFSGSGSGTDYSLTISNLEPEDIATYYCQQYSKLPWTFGGGTRLEIK
notes: also called 3G11HL x human IgG1 WT Fc; not shown: human IgG1 WT Fc (hinge-CH2-CH3) and its junction to the scFv
binding result [1]: binds | binding result [2]: binds

B2: PDL01047 (Fc fusion, not shown: a dimerising Fc or GST; small tags and cut ends)
scFv: DVQITQSPSYLAASPGETITINCRASKSISKYLAWYQEKPGKTNKLLIYSGSTLQSGIPSRFSGSGSGTDFTLTISSLEPEDFAMYYCQQHNEYPFTFGAGTKLEIKGGGGSGGGGSGGGGSGGGGSEVQLQESGPSLVKPSQTLSLTCSVTGDSITSGYWNWIRKFPGNRLEYMGFRSYSGTTYYNPSLKSRISITRDTSKNQYYLQLNSVTTEDTATYYCARFSDFGSSENTMDYWGQGTSVTVSS
notes: also called 7A3-2LH x human IgG1 WT Fc
binding result [1]: binds | binding result [2]: binds

B3: PDL01048 (Fc fusion, not shown: a dimerising Fc or GST; small tags and cut ends)
scFv: DIVLTQSPASLAVSLGQRATISCRASKSVSKSGYSYLHWYQQKPGQTPKLLIYLASNLESGVPARFSGSGSGTDFTLNIHPVEEEDAATYYCQHSWELPYTFGGGTKLEIKGGGGSGGGGSGGGGSGGGGSEVQLQESGPSLVKPSQTLSLTCSVTGDSITSGYWNWIRKFPGKKLEYMGYISYTGSTYYNPSLKSRISIARDTSKNQYFLQLNSVTTEDTATYYCTRGENWDGGYFDYWGQGTTLTVSS
notes: also called 7H11LH x human IgG1 WT Fc
binding result [1]: binds | binding result [2]: binds

B4: CD4001086 (Fc fusion)
chain: EVVMTQSPGTLSLSPGERATLSCRSSQSLVHYNGYTYLHWYQQKPGQAPRLLIYKVSNRFSGIPARFSGSGSGTDFTLTISRLEPEDLAVYFCSQTTHVPLTFGQGTKVEIKGGGGSGGGGSGGGGSGGGGSEVQLVESGGGLVQPGRSLRLSCAASGFTFSSYAMSWVRQAPGKGLEWVASISSAGTYIYYADSVQGRFTISRDNGKNSLYLQMNSLRAEDTALYYCARHGNGYDPLWYFDVWGQGTMVTVSS
notes: Partly humanized 5B9 scFv on the N-terminus of a wildtype IgG1 Fc; not shown: wildtype IgG1 Fc region
EC50 (read off the curve) [3]: ~2 nM

B5: CD4001097 (Fc fusion)
chain: B4 chain with E133Q, Q145K, R148G, Q197K, G207A, L225V, Q246A, M249T
notes: As m65; not shown: wildtype IgG1 Fc region
EC50 (read off the curve) [3]: ~4 nM

B6: CD4001087 (Fc fusion)
chain: EVVMTQSPDTLSVSPGERATLSCRSSQSLVHYNGYTYLHWYQQKPGQVPRLLIYKVSNRFSGVPARFTGSGSGTEFTLTISSLQSEDFAVYFCSQTTHVPLTFGQGTKLEIKGGGGSGGGGSGGGGSGGGGSEVQLVESGGGLVQPGRSLRLSCAASGFTFSSYAMSWVRQAPGKGLEWVASISSAGTYIYYADSVQGRFTISRDNGKNSLYLQMNSLRAEDTALYYCARHGNGYDPLWYFDVWGQGTMVTVSS
notes: as for B5
binding result [3]: binds

B7: CD4001101 (Fc fusion)
scFv: DIQMTQSPSTLSASVGDRVTITCKSSQSLLFSVNQKNYLAWYQQKPGKAPKLLIYWASTRESGVPARFSGSGSGTEFTLTISSLQPDDFATYYCQHYYSYPWTFGQGTKVEVKGGGGSGGGGSGGGGSGGGGSQVQLVQSGAEVKKPGASVKVSCKASGYTFSTSWIEWIKQAPGQGLEWIGEILPGSGSTNYNENFRNKATFTADTSISTAYMELSRLRSDDTAVYYCARGDDGSYVRWYFDVWGQGTLVTVSS
notes: CDR-grafted 1D5 scFv in scFv-hFc format; not shown: the human Fc (hinge-CH2-CH3) of the scFv-hFc format
binding result [3]: binds

B8: CD4001102 (Fc fusion)
scFv: B7 scFv with T10S, A66S, E76D, L79F, D87E, F89I, Q106G, V112I
notes: As m82; not shown: the human Fc (hinge-CH2-CH3) of the scFv-hFc format
binding result [3]: binds

B9: CD4001092 (Fc fusion)
chain: DVVMTQSPDSLAVSLGERATINCRSSQSLVHYNGYTYLHWYQQKPGQPPKLLIYKVSNRFSGVPDRFSGSGSGTDFTLTISSLQAEDVAVYFCSQTTHVPLTFGAGTKLELRGGGGSGGGGSGGGGSGGGGSEVQLVESGGGVVQPGRSLRLSCAASGFTFSSYAMSWVRQAPGKGLEWVASISSAGTYIYYADSVKGRFTISRDNSKNTLYLQMNGLRAEDTAVYYCARHGNGYDPLWYFDVWGQGTLVTVSS
notes: as for B5
binding result [3]: binds

B10: CD4001093 (Fc fusion)
chain: DVVMTQSPDTLSLSPGERATLSCRSSQSLVHYNGYTYLHWYQQQPGQAPRLLIYKVSNRFSGIPDRFSGSGSGTDFTLTISRLEPEDFAVYFCSQTTHVPLTFGQGTKLEIKGGGGSGGGGSGGGGSGGGGSEVQLLESGGGLVQPGGSLRLSCAASGFTFSSYAMSWVRQAPGKGLEWVASISSAGTYIYYTDSVKGRFSISRDNSKNTLYLQMNSLRAEDTAVYYCARHGNGYDPLWYFDVWGQGTTVTVSS
notes: as for B5
binding result [3]: binds

B11: CD4001095 (Fc fusion)
chain: B10 chain with E133Q, L137V, E178V, T193A, S201T, S207A, N216T, V225I, T248A, T249L
notes: as for B5
binding result [3]: binds

B12: CD4001078 (bispecific antibody)
PDL_5F9 x Fc-Knob: EVQLVESGGGLVKPGGSLRLSCAASGFTFSDYGMAWVRQAPGKGLEWVAFITSLAYIIYYADSVKGRFTISRDNAKNSLYLQMNSLRAEDTAVYYCARNYGSSPYYFDYWGQGTLVTVSSGGGGSGGGGSGGGGSGGGGSDIQMTQSPSSLSASVGDRVTITCRASQDINKFLSWYQQKPGKAPKLLIHYTSSLQPGVPSRFSGSGSGTDFTLTISSLQPEDFATYYCLQYDNLYTFGQGTKLEIKEPKSSDKTHTCPPCPAPPAAAPSVFLFPPKPKDTLMISRTPEVTCVVVDVSHEDPEVKFNWYVDGVEVHNAKTKPREEQYNSTYRVVSVLTVLHQDWLNGKEYKCAVSNKALPAPIEKTISKAKGQPREPQVYTLPPSRDELTKNQVSLWCLVKGFYPSDIAVEWESNGQPENNYKTTPPVLDSDGSFFLYSKLTVDKSRWQQGNVFSCSVMHEALHNHYTQKSLSLSPG
PDL_5F9 x Fc-Hole x CD40_1D5: EVQLVESGGGLVKPGGSLRLSCAASGFTFSDYGMAWVRQAPGKGLEWVAFITSLAYIIYYADSVKGRFTISRDNAKNSLYLQMNSLRAEDTAVYYCARNYGSSPYYFDYWGQGTLVTVSSGGGGSGGGGSGGGGSGGGGSDIQMTQSPSSLSASVGDRVTITCRASQDINKFLSWYQQKPGKAPKLLIHYTSSLQPGVPSRFSGSGSGTDFTLTISSLQPEDFATYYCLQYDNLYTFGQGTKLEIKEPKSSDKTHTCPPCPAPPAAAPSVFLFPPKPKDTLMISRTPEVTCVVVDVSHEDPEVKFNWYVDGVEVHNAKTKPREEQYNSTYRVVSVLTVLHQDWLNGKEYKCAVSNKALPAPIEKTISKAKGQPREPQVYTLPPSRDELTKNQVSLSCAVKGFYPSDIAVEWESNGQPENNYKTTPPVLDSDGSFFLVSKLTVDKSRWQQGNVFSCSVMHEALHNRFTQKSLSLSPGGGGSPSDIVMSQSPSSLAVSVGEKVTMSCKSSQSLLFSVNQKNYLAWYQQKPGQSPKLLIYWASTRESGVPDRFTGSGSGTDFTLTIGSVKAEDLAVYYCQHYYSYPWTFGGGTKLEIKGGGGSGGGGSGGGGSGGGGSQVQLQQSGAELMNPGASVRISCKATGYTFSTSWIEWIKQRPGHGLEWIGEILPGSGSTNYNEKFKGKATFTADTSSNTAYMQLSSLTFEDSAVYYCARGDDGSYVRWYFDVWGAGTTVTVSS
binding result [4]: binds

The next lines start with the values.

binding result [4]: binds
B13: CD4001081 (bispecific antibody)
Fc-knob x CD40_1D5: EPKSSDKTHTCPPCPAPPAAAPSVFLFPPKPKDTLMISRTPEVTCVVVDVSHEDPEVKFNWYVDGVEVHNAKTKPREEQYNSTYRVVSVLTVLHQDWLNGKEYKCAVSNKALPAPIEKTISKAKGQPREPQVYTLPPSRDELTKNQVSLWCLVKGFYPSDIAVEWESNGQPENNYKTTPPVLDSDGSFFLYSKLTVDKSRWQQGNVFSCSVMHEALHNHYTQKSLSLSPGGGGSPSDIVMSQSPSSLAVSVGEKVTMSCKSSQSLLFSVNQKNYLAWYQQKPGQSPKLLIYWASTRESGVPDRFTGSGSGTDFTLTIGSVKAEDLAVYYCQHYYSYPWTFGGGTKLEIKGGGGSGGGGSGGGGSGGGGSQVQLQQSGAELMNPGASVRISCKATGYTFSTSWIEWIKQRPGHGLEWIGEILPGSGSTNYNEKFKGKATFTADTSSNTAYMQLSSLTFEDSAVYYCARGDDGSYVRWYFDVWGAGTTVTVSS
PDL_5F9 x Fc-Hole x CD40_1D5: B12 PDL_5F9 x Fc-Hole x CD40_1D5

binding result [3]: binds
B14: CD4001091 (Fc fusion)
chain: DVQMTQSPILLSASVGDRVTITCRSSQSLVHYNGYTYVHWYQQRTNGSPRLLIYKVSNRFSGVPDRFSGSGSGTDFTLTISSLQPEDIADYFCQQTTHVPLTFGAGTKVEIKGGGGSGGGGSGGGGSGGGGSEVQLVESGGGVVQPGRSLRLSCAASGFTFSSYAMSWVRQAPGKGLEWVASISSAGTYIYYADSVKGRFTISRDNSKNTLYLQMNGLRAEDTAVYYCARHGNGYDPLWYFDVWGQGTLVTVSS
notes: as for B5

binding result [3]: binds
B15: CD4001094 (Fc fusion)
chain: B14 chain with V137L, V143L, R148G, A193T, T201S, G217S, L249T
notes: as for B5

binding result [3]: binds
B16: CD4001096 (Fc fusion)
chain: B14 chain with E133Q, V143L, R148G, E178V, S207A, N216T, G217S, V225I, T248A
notes: as for B5

binding result [3]: binds
B17: CD4001098 (Fc fusion)
chain: B14 chain with E133Q, V143L, Q145K, R148G, S207A, T210S, G217S, Q246A, L249T
notes: as for B5

binding result [1]: binds | binding result [2]: binds
B18: PDL01049 (10B2LH x human IgG1 WT Fc) (Fc fusion)
chain: DIQMTQTTSSLSASLGDRVTISCRASQDIRNYLNWYQQKPDGTVKLLIYYTSRLQSGVPSRFSGSGSGTDYSLTITTLEQEDFATYFCQQGNMFPYTFGGGTKLEIKGGGGSGGGGSGGGGSGGGGSKVQLQQSGAEVVKPGASVKLSCKASGYNLTEYIIHWVKQRSGQGLEWIGWFYPGSGSIKYNEKFKDKATLTADKSSTTVYMDLSRLTSEDSAVYFCARHGLYYGFPYWGQGTSVTVSS
notes: not shown: human IgG1 WT Fc
